Experimental data from US20230295310A1 (ABCELLERA BIOLOGICS, published 2023).

Experiments:
human CD3e/d = target: T1, human CD3e/d (human, UniProt P07766 23-126; P04234 22-105); test: SPR (Carterra LSA), mAb on chip
T1 construct: Bought soluble protein; also called hCD3e/d; human CD3/ed (Sino CT038-H2508H)
In short: (§1)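 Purified mAbs amine-coupled (EDC/S-NHS) at 10 μg/mL in 10 mM NaOAc pH 4.25 onto an HC-30M chip, with benchmark and negative-control mAbs; analyte flowed over the array. Double-referenced sensorgrams fitted globally to a 1:1 Langmuir model for ka, kd and KD.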

human CD3e/g = target: T2, human CD3e/g (human, UniProt P07766 23-126; P09693 23-116); test: SPR (Carterra LSA), mAb on chip
T2 construct: Bought soluble protein; also called hCD3e/g; human CD3e/g (Acro CDD-C52W4)
T2 sequence (P07766 23-126, chain 1 of 2): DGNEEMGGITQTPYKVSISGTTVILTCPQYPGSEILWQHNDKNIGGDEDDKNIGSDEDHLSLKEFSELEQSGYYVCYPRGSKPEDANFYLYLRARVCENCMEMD
T2 sequence (P09693 23-116, chain 2 of 2): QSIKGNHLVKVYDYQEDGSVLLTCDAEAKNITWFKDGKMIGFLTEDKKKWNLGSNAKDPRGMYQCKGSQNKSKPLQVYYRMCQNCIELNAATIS
In short: as §1

T1 sequence (P07766 23-126, chain 1 of 2): as the sequence (P07766 23-126, chain 1 of 2) above
T1 sequence (P04234 22-105, chain 2 of 2): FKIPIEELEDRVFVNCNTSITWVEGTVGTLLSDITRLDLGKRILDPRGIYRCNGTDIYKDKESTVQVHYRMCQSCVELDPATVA

| Kd (human CD3e/d) [nM] | Kd (human CD3e/g) [nM] | Binder |
| --- | --- | --- |
| 17.1 | 10.6 | mAb 106 (antibody, V domains shown, VH and VL only) VH: QVQLVESGGGVVQPGRSLRLSCAASGFTFRSYGMHWVRQAPGKGLEWVAIIWYNGNKKDYVDSVKGRFTISRDNSKNTLYLQMNSLRAEDTALYYCARGPGYNWFDPWGQGTLVTVSS VL: DIQMTQSPPSLSASVGDRVTITCRASQRISSYLNWYQQKPGKAPKLLIYAASSLQSGVPSRFSGSGSGTDFTLTISSLQPEDFATYYCQQSDSFPLTFGGGTKVEII |
| 18.4 | 8.97 | mAb 110 (antibody, V domains shown, VH and VL only) VH: QVQLVESGGGVVQPGRSLRLSCAASGFTFRSYGMHWVRQAPGKGLEWVAIIWYNGNKKDYVDSVKGRFTISRDNSKNMLYLQMNSLRAEDTALYYCARGPGYNWFDPWGQGTLVTVSS VL: DIQMTQSPPSLSASVGDRVTITCRASQRISSYLNWYQQRPGKAPKLLIYAASSLQSGVPSRFSGSGSGTDFTLTISSLQPEDFATYYCQQTDSFPLTFGGGTKVEII |
| 10.8 | 3.64 | mAb 49 (antibody, V domains shown, VH and VL only) VH: EVQLVESGGGLVPPGGSLRLSCVASGFTLRSYTMNWVRQAPGQGLEWISYISSTSRTIYYSDSVKGRFTISRDNAKNSLYLQVNSLRDEDTALYYCAREDYYDSSGFDCWGQGTLVTVSS VL: AIRMTQSPSSFSASTGDRVTITCRASQGIFNYLAWYQQKPGKAPKLLIYSTSTLQSGVPSRFSGSGSGTDFTLTIRGLQSEDLATYYCQQYYSFPRTFGQGTKVDIK |
| 91 | 47 | mAb 292 (antibody, V domains shown, VH and VL only) VH: EVQLLESGGGLVQPGGSRRLSCAASGFTFSTYAMSWVRQAPGKGLEWVSVINGRGDDTNYADSVKGRFTISRDNSKNILFLQMNSLRAEDTAVYYCAKKYSYYYYYMDVWGKGTTVTVSS VL: SYELTQPLSVSVALGQTARITCGGNNIGSKDVHWYQQKPGQAPVLVIYRDSNRPSGIPERFSGSNSGNTATLTISRAQAGDEADYYCQVWDSRTAVFGGGTQLTAL |
| 66 | 18 | mAb 297 (antibody, V domains shown, VH and VL only) VH: EVQLLESGGGLVQPGGSLRLSCAASGFTFSSYAMNWVRQAPGKGLEWVSIISGGRRDDITYYAASVKGRFTISRDNSKNTLYLQMNSLRAEDTAVYYCAKMYNYYYYYIDVWGKGTTVTVSS VL: SYELTQPLSVSVALGQTAKITCGGNNIGSKDVHWYQQKPGQAPVLVIYRDSNRPSGIPERFSGSNSGNTATLTISRAQAGDEADYYCQVWDSNTAVFGGGTQLTAL |
| 370 | 180 | mAb 296 (antibody, V domains shown, VH and VL only) VH: EVQLLESGGGLVQPGGSLRLSCAASGFTFSSYAMSWVRQAPGKGLEWVSAISGSGGTTYYTDSVKGRFTISRDNSKNTLYLQMNSLRAEDTAVYYCAKKYSYYYYYMDVWGKGTTVTVSS VL: SYELTQPLSVSVALGQTARITCGGNNIGSKNVHWYQQKPGQAPVLVIYRDSNRPSGIPERFSGSNSGNTATLTISRAQAGDEADYYCQVWDSSTAVFGGGTQLTAL |
| 47 | 5.5 | mAb 303 (antibody, V domains shown, VH and VL only) VH: EVHLLESGGGLVQPGGSLRLSCAASGFTFSSYAMNWVRQAPGKGLEWISIISGGRRSGITYYAASVKGRFTISRDNSKNTLDLQMNSLRAEDTAVYYCAKMYNYYYYYIDVWGKGTTVTVSS VL: SYELTQPLSVSVALGQTARITCGGNNIGSKDVHWYQQKPGQAPVLVIYRDSNRPSGIPERFSGSNSGNTATLTISRAQAGDEADYYCQVWDSNTAVFGGGTQLTAL |
| 19.6 | 7.44 | mAb 111 (antibody, V domains shown, VH and VL only) VH: EVQLVESGGVLVKTGGSLRLSCVASGFSFKKAWMNWVRQAPGKGLEWVGRIKRNSDGGAADYAAPVKDRFTLSRDDSKNTLYLQMNSLKTEDTAVYYCTTLDSSSWYVGYYYMDVWGKGTTVTVSS VL: DIHMTQSPSSVSASLGDRVTFTCRASQNINNWLAWYQQKPGKAPKLLIYTASSLQSGVPSRFSGSGSGTDFTLTISSLQPDDFATYYCQQAHSLPITFGQGTRLGIK |
| 56.1 | 16.6 | mAb 123 (antibody, V domains shown, VH and VL only) VH: DVQLVESGGGTVKTGGSLRLSCVASGFSFKKAWMNWVRQAPGKGLEWVGRIKKNSDDGTADYAAPVKGRFTISRDDSKRTLFLQMNSLQTEDTAVYYCTTLDSSSWFVGYYYMDVWGKGTTVTVSS VL: DIQMTQSPSSVSASVGDRVIITCRASQDINNWLAWYQQKPGKAPKLLIYTASSLQSGVPSRFSGSGSVSDFTLTIDSLQPEDFATYYCQQAHSLPITFGQGTRLEIK |
| 8.92 | 11.6 | mAb 99 (antibody, V domains shown, VH and VL only) VH: QGQLVESGGGVVQPGRSLRLSCAASGFTFRGFGMHWVRQAPGKGLEWVAIIYYDGKNKYYADSVKGRFTISRDNSKNTLYLQMNSLRAEDTAVYYCAKGGGYNWFDPWGQGTLVTVSS VL: DIQMTQSPSSLSASVGDRVTITCRASQSISTYLNWYQQKPGKAPKLLIYSASSLQSGVPSRFSGSGSGTDFTLTISNLQPEDFAIYYCQRSYSPPFTFGPGTKLDIR |
| 1.79 | 9.22 | mAb 95 (antibody, V domains shown, VH and VL only) VH: QAHLVESGGGVVQPGRSLRLSCSASGFTFSGYGMHWVRQAPGKGLEWVALIYFDGRNKYYADSVKGRFTISRDNSKNTLYLQMNSLRAEDTAVYYCARGGGYNWFDPWGQGTLVTVSS VL: DIQMTQSPSSLSASVGDRVTITCRASQSINNYLSWYQQKPGKAPKLLIYLASNLQSGVPSRFSGSGSGTDFTLTISSLQPEDFATYYCQLSYRSPFTFGPGTKVDVK |
| 20.5 | 25.5 | mAb 100 (antibody, V domains shown, VH and VL only) VH: QVQLVESGGGVVQPGRSLRLSCVASGFTFRGYGMHWVRQAPGKGLEWVAIIYYDGKNKYYADSVKGRFTISRDNSKNTLYLQMNSLRVEDTALYYCARGGGYNWFDPWGQGTLVTVSS VL: DIQMTQSPSSLSASVGDRVTITCRASQSISTYLNWYQQKPGKAPKLLIYTASSLQSGVPSRFSGSGSGTVFTLTISSLQPEDFAIYYCQRSYSPPFTFGPGTRLDIK |
| 1.57 | 7.8 | mAb 94 (antibody, V domains shown, VH and VL only) VH: QVHLVESGGGVVQPGRSLRLSCSASGFTFSGYGMHWVRQAPGKGLEWVALIYFDGRNKYYADSVKGRFTISRDNSKNTLYLQMNSLRAEDTAVYYCARGGGYNWFDPWGQGTLVTVSS VL: DIQMTQSPSSLSASVGDRVTITCRASQSISNYLNWYQQKPGKAPKLLIYLASSLQSGVPSRFSGSGSGTDFTLTINSLQPEDFASYYCQLSYSSPFTFGPGTKVDVN |
| 9.06 | 10.9 | mAb 101 (antibody, V domains shown, VH and VL only) VH: QGQLVESGGGVVQPGRSLRLSCAASGFTFRGFGMHWVRQAPGKGLEWVAIIYYDGKNKYYADSVKGRFTISRDNSKNMLYLQMNSLRAEDTAVYYCAKGGGYNWFDPWGQGTLVTVSS VL: DIQMTQSPSSLSASVGDRVTITCRASQSISTYLNWYQQKPGKAPKLLIYSASSLQSGVPSRFSGSGSGTDFTLTISNLQPEDFAIYYCQRSYSPPFTFGPGTKLDIR |
| 7.73 | 11.9 | mAb 96 (antibody, V domains shown, VH and VL only) VH: QAHLVESGGGVVQPGRSLRLSCSASGFTFSGYGMHWVRQAPGKGLEWVSLIYFDGRNKYYADSVKGRFTISRDNSKNTLYLQMNSLRAEDTAVYYCARGGGYNWFDPWGQGTLVTVSS VL: DIQMTQSPSSLSASVGDRVTITCRASQSINNYLSWYQQKPGKAPKLLIYLASNLQSGVPSRFSGNGSGTDFTLTISSLQPEDFATYYCQLSYRSPFTFGPGTKVDVK |
| 47.8 | 35.8 | mAb 93 (antibody, V domains shown, VH and VL only) VH: QVQLVESGGGVVQPGRSLRLSCAASGFTFRGYGMHWVRQAPGKGLEWVAIIYYNGNNKYYADSVKGRFTISRDNSKNTLYLQMNSLRAEDTAVYYCARGGGYNWFDPWGQGTLVTVSS VL: DIQMTQSPSSLSASVGDRVTITCRASQSISNYLNWYQQEPGKAPKLLIYTASSLQSGVPSRFSGSGSGTAFTLTISSLQPEDFAIYYCQRSSSPPFTFGPGTKLDIK |
| 16.5 | 17.8 | mAb 97 (antibody, V domains shown, VH and VL only) VH: QGQLVESGGGVVQPGRSLRLSCAASGFTFRGYGMHWVRQAPGKGLEWVAIIYYDGKNKYYADSVKGRFTISRDNSKNTLYLQMNNLRVEDTAVYYCARGGGYNWFDPWGQGTLVTVSS VL: DIQMTQSPSSLSASIGDRVTITCRASQSISNYLNWYQQKPGKAPKLLIYSASSLQSGVPSRFSGSGSGTDFTLTISNLQPEDFAIYYCQRSYSPPFTFGPGTKLDIR |
| 9.71 | 11.2 | mAb 98 (antibody, V domains shown, VH and VL only) VH: QVHLVESGGDVVQPGRSLRLSCSASGFTFSGYGMHWVRQAPGKGLEWVALIYFDGRNKYYADSVKGRFTISRDNSKNTLYLQMNSLRAEDTAVYYCARGGGYNWFDPWGQGTLVTVSS VL: DIQMTQSPSSLSASVGDRVTITCRASQSINNYLNWYQQKPGKAPKLLIYLASSLQSGVPSRFSGSGSGTDFTLTISSLQPEDLATYYCQLSYSSPFTFGPGTKVDVK |
| 283 | 1260 | mAb 78 (antibody, V domains shown, VH and VL only) VH: EVQLVESGGGLVQPGGSLRLSCAASGFTFSSYWMSWVRQAPGKGLEWVANIKQDGSEKYYVDSVKGRFTISRDNAKNSLYLQMNSLRAEDTAVYYCARDNSPSFYWYFDLWGRGTLVTVSS VL: DIQMTQSPSTLSASVGDRVTITCRASQSLSRWLAWYQQKPGKAPKLLIYKASSLESGVPSRFSGSGSGTEFTLTISSLQPDDFATYYCQQYYTYSRTFGQGTKVEIK |
| 33.3 | 41 | mAb 90 (antibody, V domains shown, VH and VL only) VH: EVQLVESGGGLVQPGGSLKLSCAASGFTFSGSAMHWVRQASGKGLEWVGRIRTKPNSYATSYAASVKDRFTISRDDSKNTAYLQMNSLKTEDTAVYYCIRGELEPWGQGTLVTVSS VL: not shown |
